According to publication PMC11543891, “Expression, purification, and characterization of diacylated Lipo-YcjN from Escherichia coli” (The Journal of Biological Chemistry, 2024):

Target: the molecule itself
Assay: SEC; Hiload 16/600 Superdex 200 pg, 25 mM Tris-HCl pH 7.5, 100 mM NaCl, run without LMNG and with 0.01% LMNG; elution volumes compared with gel filtration standards

B1: Lipo-YcjN (diacylated lipoprotein form of E. coli YcjN, from the construct SP-YcjN-10H) (natural protein, E. coli K-12, UniProt P76042 21-430, looked up)
chain: CKEENKTNVSIEFMHSSVEQERQAVISKLIARFEKENPGITVKQVPVEEDAYNTKVITLSRSGSLPEVIETSHDYAKVMDKEQLIDRKAVATVISNVGEGAFYDGVLRIVRTEDGSAWTGVPVSAWIGGIWYRKDVLAKAGLEEPKNWQQLLDVAQKLNDPANKKYGIALPTAESVLTEQSFSQFALSNQANVFNAEGKITLDTPEMMQALTYYRDLTANTMPGSNDIMEVKDAFMNGTAPMAIYSTYILPAVIKEGDPKNVGFVVPTEKNSAVYGMLTSLTITAGQKTEETEAAEKFVTFMEQADNIADWVMMSPGAALPVNKAVVTTATWKDNDVIKALGELPNQLIGELPNIQVFGAVGDKNFTRMGDVTGSGVVSSMVHNVTVGKADLSTTLQASQKKLDELIEQH
modifications: diacylated at cysteine 21 (S-diacylglyceryl-cysteine, the new N terminus), acyl chain compositions [16:0, 16:0] and [16:0, 18:1]
notes: YcjN, E. coli K-12, expressed with its native N-terminal signal peptide; by intact mass the purified protein is the processed lipoprotein that begins at the diacylated cysteine 21; Expressed as the full-length precursor (SP-YcjN-10H); LC-MS masses of 46,699 and 46,726 Da fit the protein cut before C21 and diacylated; No tag removal is described; also called lipidated YcjN
- binding result: binds
